The values that follow come from patent publication US20220396819A1, “METHOD FOR PRODUCING PEPTIDE HAVING PHYSIOLOGICAL ACTIVITY, AND PEPTIDE COMPRISING SHORT LINKER” (priority 2019, published 2022).

Read-outs that look alike come from different tables or passages of the source. Positions of bridges follow the written chain, without caps; N, C: chain ends. No end group written: not given here.

The target of one test is T1, FGFR (Homo sapiens, UniProt P11362).
T1 construct: endogenous in cells; host or cells: HEK293E
Put plainly: FGFR inhibitory activity, SRE luciferase assay in HEK293E cells stimulated with bFGF. It counts as cell-based. The settings on record: peptide at 10 μM, 0 to 10 ng/mL bFGF, FIG. 3. The procedure:
The inhibitory activity of the FBP monomer peptide chemically synthesized with the FBP-PAS dimer peptide on FGFR was evaluated by luciferase assay. To 25 μL of Opti-MEM medium (Thermo Fisher Scientific), 0.6 μL of Attractene Transfection Reagent (QIAGEN) was added, and the mixture was incubated at room temperature for 5 minutes. To the above mixed solution, a mixed solution of 25 μL of Opti-MEM and 1 μL of SRE reporter vector (QIAGEN) was added, and the mixture was incubated at room temperature for 20 minutes. This mixed solution was added to a 96-well plate, over which 40,000 cell/well HEK293E cells were seeded and incubated overnight in a 5% CO2 incubator at 37° C. […]
The signal intensities were detected using Dual-Luciferase Reporter Assay System (Promega). […] The luminescence of Firefly luciferase emitted from the cell lysate solution was detected with a plate reader to quantify the activation of the FGFR-Erk-SRE pathway. Subsequently, 50 μL of Glo & Stop reagent solution was added, and after 10 minutes, the luminescence of the internal standard Renilla luciferase was detected to quantify the number of cells. The signal activity of each sample was quantified as SRE activity=(Firefly luciferase luminescence intensity)/(Renilla luciferase luminescence intensity). […]

For test [1], the system named is HEL cells. Put plainly: Signal characteristics, Proteome Profiler Human Phospho-Kinase Array Kit, HEL cells. It counts as cell-based. The settings on record: 100 ng/mL rhTPO or culture supernatant 1/100 to 1/1000, 20 minutes, FIG. 43. The procedure: The signal characteristics of the TPO-PAS dimer peptide were evaluated using Proteome Profiler Human Phospho-Kinase Array Kit (R&D Systems).
1,000,000 HEL cells were cultured in RPMI 1640 medium without FBS (Thermo Fisher Scientific) for 24 hours and starved. The cells were stimulated for 20 minutes in RPMI 1640 medium supplemented with 100 ng/mL recombinant human TPO (rhTPO, Peprotech) or a culture supernatant containing TPO2-PAS8 at a dilution of 1/100 to 1/1000. As a negative control, PBS was added, and stimulation was performed for 20 minutes (Mock group). After removing the medium and washing the cells once with PBS, the cells were lysed by adding 200 μL of Lysis buffer 17 (R&D Systems) supplemented with Protease inhibitor cocktail (Nacalai Tesque). The lysate solution was centrifuged at 14,000 G for 5 minutes to obtain the supernatant as lysate.
The lysate was analyzed using Proteome Profiler Human Phospho-Kinase Array Kit. Amersham Imager 600 (GE Healthcare) was used to detect chemiluminescence. The chemiluminescence intensity of the dots was quantified using ImageJ. […] The signal pathway stimulated by rhTPO is mainly the JAK2/Stat3,5 pathway, and all of the proteins with increased phosphorylation levels are included in the pathway.

Test [2] deals with HEL cells. Put plainly: Thrombopoietin-like activity, tyrosine phosphorylation levels in HEL cells (dot blot). As to conditions: for increase in tyrosine phosphorylation levels compared with rhTPO: culture supernatant diluted, 20 minutes, rhTPO 10 to 100 ng/mL, FIG. 41. It counts as cell-based, human. As to the method: The thrombopoietin-like activity of the TPO-PAS dimer peptide was evaluated by quantification of tyrosine phosphorylation levels in HEL cells, a human leukemia-derived blood cell line. 200,000 HEL cells were cultured in RPMI 1640 medium without FBS (Thermo Fisher Scientific) for 24 hours and starved. The cells were stimulated for 20 minutes in RPMI 1640 medium supplemented with 10 to 100 ng/mL recombinant human TPO (rhTPO, Peprotech) or a culture supernatant containing AET-TPO1-PAS8, TPO2-PAS8, or AET-TPO2-PAS8 at a predetermined dilution factor. As a negative control, PBS (Mock group) or a supernatant expressing no peptide (Empty group) by using an empty vector was added, and stimulation was performed for 20 minutes. After removing the medium and washing the cells once with PBS, the cells were lysed by adding 100 μL of Lysis buffer 17 (R&D Systems) supplemented with Protease inhibitor cocktail (Nacalai Tesque). The lysate solution was centrifuged at 14,000 G for 5 minutes to obtain the supernatant as lysate.
APVDF membrane (Immobilon-P membrane 0.45 m, Merck) was treated with methanol for 1 minute and then with ultrapure water for 5 minutes for hydrophilic treatment. The PVDF membrane was dried, and each cell lysate solution was spotted with a 1 μL pipette and dried. The PVDF membrane was blocked with PVDF Blocking Reagent for Can Get Signal (NOF) at room temperature for 1 hour, and then Can Get Signal Solution 2 (NOF), supplemented with anti-pY antibody-[…] conjugate (Cell Signaling Technology) at 1:5000, was added, followed by an antibody reaction at 4° C. for 24 hours. The membrane was washed 3 times with TBST buffer, Luminata Crescendo Western HRP Substrate (Merck) was added, and a chemiluminescence reaction was carried out. Chemiluminescence was detected using Amersham Imager 600 (GE Healthcare). The luminescence intensity of the detected dots was quantified by ImageJ.

For a further test, the target named is Met (HGF receptor) (UniProt P08581). The test can be described thus: cell-based or functional assay.
For test [3], the target named is T2, EpoR (UniProt P19235 25-508, limits assumed).
T2 sequence (looked up): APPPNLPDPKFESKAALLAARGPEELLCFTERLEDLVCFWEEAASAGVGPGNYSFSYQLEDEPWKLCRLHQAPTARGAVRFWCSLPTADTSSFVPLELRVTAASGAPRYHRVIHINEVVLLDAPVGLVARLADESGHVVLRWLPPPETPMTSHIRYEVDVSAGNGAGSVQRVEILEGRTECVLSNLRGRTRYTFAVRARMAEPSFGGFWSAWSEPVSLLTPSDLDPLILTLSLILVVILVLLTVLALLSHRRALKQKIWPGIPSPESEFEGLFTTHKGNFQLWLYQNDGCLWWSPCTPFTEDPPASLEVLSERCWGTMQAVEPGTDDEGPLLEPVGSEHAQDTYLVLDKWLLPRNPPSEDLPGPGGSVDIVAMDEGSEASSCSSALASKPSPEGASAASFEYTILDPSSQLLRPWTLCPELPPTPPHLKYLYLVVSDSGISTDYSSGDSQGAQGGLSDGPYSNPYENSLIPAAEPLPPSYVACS
Put plainly: cell-based or functional assay.

Test [4] has as its target T2, EpoR. Put plainly: cell-based or functional assay. The source holds these as a separate data set.

Sequence of Met (HGF receptor) (P08581 25-1390 limits assumed): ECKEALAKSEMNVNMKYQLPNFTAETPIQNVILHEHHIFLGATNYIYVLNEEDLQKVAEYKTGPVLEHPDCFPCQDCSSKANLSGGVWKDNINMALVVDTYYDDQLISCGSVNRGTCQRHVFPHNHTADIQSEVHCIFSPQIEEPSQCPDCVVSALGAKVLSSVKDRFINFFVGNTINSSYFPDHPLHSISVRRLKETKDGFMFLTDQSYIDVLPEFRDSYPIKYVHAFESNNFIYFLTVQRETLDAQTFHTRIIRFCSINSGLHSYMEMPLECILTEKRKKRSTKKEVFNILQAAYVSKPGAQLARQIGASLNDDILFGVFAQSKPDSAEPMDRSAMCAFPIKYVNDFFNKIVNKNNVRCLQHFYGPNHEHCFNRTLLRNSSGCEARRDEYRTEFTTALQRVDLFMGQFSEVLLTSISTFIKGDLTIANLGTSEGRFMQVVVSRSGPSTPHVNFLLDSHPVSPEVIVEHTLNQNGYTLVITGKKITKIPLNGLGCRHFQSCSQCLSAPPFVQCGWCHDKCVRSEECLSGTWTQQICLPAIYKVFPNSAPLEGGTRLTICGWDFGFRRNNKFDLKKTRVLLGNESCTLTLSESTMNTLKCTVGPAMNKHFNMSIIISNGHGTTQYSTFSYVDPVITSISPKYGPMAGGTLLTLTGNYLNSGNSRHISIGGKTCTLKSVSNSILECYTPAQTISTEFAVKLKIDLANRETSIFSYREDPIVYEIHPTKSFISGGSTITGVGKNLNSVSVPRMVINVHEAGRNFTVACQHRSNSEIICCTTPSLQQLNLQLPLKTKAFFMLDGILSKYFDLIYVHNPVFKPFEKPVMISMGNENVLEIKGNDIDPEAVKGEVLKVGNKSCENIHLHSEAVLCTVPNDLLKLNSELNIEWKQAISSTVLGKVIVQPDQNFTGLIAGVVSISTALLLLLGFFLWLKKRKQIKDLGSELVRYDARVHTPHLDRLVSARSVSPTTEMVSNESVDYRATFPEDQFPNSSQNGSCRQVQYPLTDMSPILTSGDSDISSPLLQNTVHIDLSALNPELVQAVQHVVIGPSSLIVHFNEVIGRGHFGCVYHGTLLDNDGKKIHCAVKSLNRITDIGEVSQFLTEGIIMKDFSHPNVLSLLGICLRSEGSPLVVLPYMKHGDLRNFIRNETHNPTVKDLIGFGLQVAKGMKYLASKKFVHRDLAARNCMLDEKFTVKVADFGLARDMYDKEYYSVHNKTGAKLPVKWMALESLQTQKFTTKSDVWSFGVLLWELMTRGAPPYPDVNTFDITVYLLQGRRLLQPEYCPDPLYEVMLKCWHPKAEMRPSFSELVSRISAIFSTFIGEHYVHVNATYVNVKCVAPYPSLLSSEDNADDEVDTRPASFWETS
T1 sequence (P11362 22-822): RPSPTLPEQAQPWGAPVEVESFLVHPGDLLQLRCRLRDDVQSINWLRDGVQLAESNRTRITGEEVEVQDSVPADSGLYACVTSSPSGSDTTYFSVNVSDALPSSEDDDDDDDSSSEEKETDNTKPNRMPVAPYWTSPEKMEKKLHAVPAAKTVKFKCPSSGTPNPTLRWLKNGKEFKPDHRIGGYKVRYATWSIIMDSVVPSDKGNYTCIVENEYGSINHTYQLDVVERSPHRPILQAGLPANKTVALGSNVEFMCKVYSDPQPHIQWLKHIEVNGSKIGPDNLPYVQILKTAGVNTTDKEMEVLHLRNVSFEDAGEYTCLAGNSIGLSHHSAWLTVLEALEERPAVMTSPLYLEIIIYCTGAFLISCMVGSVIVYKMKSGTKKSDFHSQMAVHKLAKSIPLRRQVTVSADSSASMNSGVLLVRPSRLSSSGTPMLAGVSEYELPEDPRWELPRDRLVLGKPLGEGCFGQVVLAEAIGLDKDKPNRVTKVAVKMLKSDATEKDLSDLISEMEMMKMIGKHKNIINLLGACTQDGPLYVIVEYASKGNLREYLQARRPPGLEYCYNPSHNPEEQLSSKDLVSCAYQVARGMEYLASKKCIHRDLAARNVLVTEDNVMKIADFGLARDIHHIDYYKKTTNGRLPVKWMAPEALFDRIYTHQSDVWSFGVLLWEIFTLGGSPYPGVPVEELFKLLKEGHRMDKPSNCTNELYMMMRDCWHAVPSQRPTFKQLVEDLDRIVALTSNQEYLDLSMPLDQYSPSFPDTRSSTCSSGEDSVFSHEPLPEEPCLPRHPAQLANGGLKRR

Consider “RPGCGPRKPRTPKKCGSHGAAPAAPAPAAPAAPAPAAPAGRPGCGPRKPRTPKKCGSH (disulfide 4-15, 44-55) [FBP-PAS]”, for which, in the test with FGFR, the “inhibitory activity on FGFR (relative receptor activity)” value is given as “higher inhibitory activity than the FBP monomer peptide”.
For the molecule “GGCADGPTLREWISFCGGAAPAAPAPGGCADGPTLREWISFCGG (disulfide 3-16, 29-42) [TPO2-PAS8]”, the “phosphorylation levels of signal proteins compared with PBS (Mock group)” value in the test with HEL cells [1] was “increased in phosphorylation levels of Erk, CREB, Stat3, Stat5a, and Stat5b”. Besides, the “luminescence intensity (HEL cell activation ability) compared with rhTPO” value in the test on HEL cells [2] (culture supernatant 1/100 to 1/10000 dilution, FIG. 42) is recorded as “equal to or higher than that of the 100 ng/mL rhTPO stimulation group”. For the same molecule, the “increase in tyrosine phosphorylation levels compared with rhTPO” value in the test with HEL cells [2] is “equal to or higher than that of rhTPO”.
Take “recombinant human HGF (from UniProt P14210 32-728) (ligand)”: the rate of wound healing of HuCCT1 cells (33 ng/mL HGF) in the test with Met (HGF receptor) amounted to 1.6 times.
Regarding “AETGGCADGPTLREWISFCGGAAPAAPAPGGCADGPTLREWISFCGG (disulfide 6-19, 32-45) [AET-TPO2-PAS8]”, the “increase in tyrosine phosphorylation levels compared with rhTPO” value with HEL cells [2] was “equal to or higher than that of rhTPO”.
Still for that read-out and setting: in the case of “AETIEGPTLRQWLAARAAAPAAPAPIEGPTLRQWLAARA (AET-TPO1-PAS8)” it was “equal to or higher than that of rhTPO”.

B1: AET-EPO-PAS22 (peptide)
peptide: AETGGLYACHMGPMTWVCQPLRGAAPAAPAPAAPAAPAPAAPAAPGGLYACHMGPMTWVCQPLRG
modifications: disulfide 9-18, 51-60
One may read the EC50 as the concentration giving half of the maximal effect. B1: a half-maximal response in the test with EpoR [3] (EC50) required 0.34 ng/mL.

B2: AET-EPO-PAS8 (peptide)
peptide: AETGGLYACHMGPMTWVCQPLRGAAPAAPAPGGLYACHMGPMTWVCQPLRG
modifications: disulfide 9-18, 37-46
B2: the “EC50” value with EpoR [3] worked out at 0.19 ng/mL.

B3: AET-EPO-PAS22-PAS600 (peptide)
peptide: AETGGLYACHMGPMTWVCQPLRGAAPAAPAPAAPAAPAPAAPAAPGGLYACHMGPMTWVCQPLRGAAPAAPAPAAPAAPAPAAPAAPAPAAPAAPAPAAPAAPAPAAPAAPAPAAPAAPAPAAPAAPAPAAPAAPAPAAPAAPAPAAPAAPAPAAPAAPAPAAPAAPAPAAPAAPAPAAPAAPAPAAPAAPAPAAPAAPAPAAPAAPAPAAPAAPAPAAPAAPAPAAPAAPAPAAPAAPAPAAPAAPAPAAPAAPAPAAPAAPAPAAPAAPAPAAPAAPAPAAPAAPAPAAPAAPAPAAPAAPAPAAPAAPAPAAPAAPAPAAPAAPAPAAPAAPAPAAPAAPAPAAPAAPAPAAPAAPAPAAPAAPAPAAPAAPAPAAPAAPAPAAPAAPAPAAPAAPAPAAPAAPAPAAPAAPAPAAPAAPAPAAPAAPAPAAPAAPAPAAPAAPAPAAPAAPAPAAPAAPAPAAPAAPAPAAPAAPAPAAPAAPAPAAPAAPAPAAPAAPAPAAPAAPAPAAPAAPAPAAPAAPAPAAPAAPAPAAPAAPAPAAPAAPAPAAPAAPAPAAPAAPAPAAPAAPAPAAPAAPAPAAPAAPAPAAPAAPAPAAPAAPAPAAPAAPAPAAPAAPAPAAPAAPAPAAPAAPAPAAPAAPAPAAPAAPAPAAPAAPAP
modifications: two disulfide bonds in the molecule
As to B3, in the test with EpoR [4], the concentration for a half-maximal effect (EC50) is 0.32 ng/mL.
Regarding GGLYACHMGPMTWVCQPLRG [monomer peptide EMP35], a half-maximal response with EpoR [3] (EC50) required 110 ng/mL.

B4: AET-EPO-PAS22-PAS200 (peptide)
peptide: AETGGLYACHMGPMTWVCQPLRGAAPAAPAPAAPAAPAPAAPAAPGGLYACHMGPMTWVCQPLRGAAPAAPAPAAPAAPAPAAPAAPAPAAPAAPAPAAPAAPAPAAPAAPAPAAPAAPAPAAPAAPAPAAPAAPAPAAPAAPAPAAPAAPAPAAPAAPAPAAPAAPAPAAPAAPAPAAPAAPAPAAPAAPAPAAPAAPAPAAPAAPAPAAPAAPAPAAPAAPAPAAPAAPAPAAPAAPAPAAPAAPAPAAPAAPAPAAPAAPAP
modifications: two disulfide bonds in the molecule
For B4, the “EC50” value with EpoR [4] was 0.85 ng/mL.
